Results from paper PMC6128652, “Structure of the Cladosporium fulvum Avr4 effector in complex with (GlcNAc)6 reveals the ligand-binding mechanism and uncouples its intrinsic function from recognition by the Cf-4 resistance protein” (PLoS Pathogens, 2018).
Positions count from the first letter of the chain named. “Also recorded” adds a separate entry of the source.

B1: D102A (protein)
chain: KAPKTQPYNPCKPQEVIDTKCMGPKDCLYPNPDSCTTYIQCVPLDEVGNAKPVVKPCPKGLQWNDNVGKKWCAYPNLSTCPVKTPQ
modifications: left off: 6x His (two), N-terminal, state not stated
B2: N93A (protein)
chain: B1 chain with N64A, A73D
modifications: left off: 6x His (two), N-terminal, state not stated
B3: Y103F (protein)
chain: B1 chain with A73D, Y74F
modifications: left off: 6x His (two), N-terminal, state not stated
B4: Y67F (protein)
chain: B1 chain with Y38F, A73D
modifications: left off: 6x His (two), N-terminal, state not stated
B5: P87A (protein)
chain: B1 chain with P58A, A73D
modifications: left off: 6x His (two), N-terminal, state not stated
B6: N95A (protein)
chain: B1 chain with N66A, A73D
modifications: left off: 6x His (two), N-terminal, state not stated
B7: M51A (protein)
chain: B1 chain with M22A, A73D
modifications: left off: 6x His (two), N-terminal, state not stated
B8: D94A (protein)
chain: B1 chain with D65A, A73D
modifications: left off: 6x His (two), N-terminal, state not stated
B9: P53A (protein)
chain: B1 chain with P24A, A73D
modifications: left off: 6x His (two), N-terminal, state not stated

Tests used:
[1] = test system: Cf-4; assay: Agrobacterium tumefaciens transient transformation assay (ATTA): co-expression with Cf-4 in Nicotiana benthamiana leaves; assay type: in vivo; details: N. benthamiana, three cell density ratios 0.5:1, 1:1, 2:1
Experimental: The Agrobacterium tumefaciens transient transformation assay (ATTA) was used for the transient co-expression into leaves of Nicotiana benthamiana of Cf-4 with the WT-CfAvr4 and the mutants thereof tested in this study. Briefly, N. benthamiana plants were grown in a growth chamber with 16 h of artificial light and 70% humidity, at 25°C for 4 weeks. The true mature form of the WT-CfAvr4 (i.e. between Lys30-Gln115) and of the mutants thereof were singly cloned into the binary expression vector pICH47742 downstream of the PR1A signal sequence of Nicotiana tabacum for targeted secretion into the apoplast, and under the control of CaMV 35S promoter and NOS terminator. The tomato Cf-4 was cloned into pMOG800 as descripted before. Binary vector plasmids were transformed into A. tumefaciens strain GV3101 by electroporation. For the ATTA assay, agrobacteria transformed with pMOG800:Cf-4 was grown in 10mL LB-mannitol medium (LB medium with 10 g/L mannitol) amended with 50 μg/mL kanamycin and 25 μg/mL rifampicin, whereas agrobacteria transformed with pICH47742:WT-CfAvr4 or pICH4774:CfAvr4-mutants were grown in LB-mannitol amended with 100 μg/mL carbenicillin and 25 μg/mL rifampicin. All cultures were incubated at 28°C for 2 days, after which period they were pelleted at 2800g for 15 min, re-suspended in MMAi medium (5 g/L Murashige and Skoog basal salts, 20 g/L sucrose, 10 mM MES, and […]) at an optical cell density (A600) of 2.0, and further incubated for 2–4 h at room temperature. Agroinfiltrations were performed by mixing agrobacteria containing pMOG800:Cf-4 with agrobacteria containing pICH47742_WT-CfAvr4 or pICH47742:CfAvr4-mutants at three different ratios of optical cell densities, i.e. A6000.5:A6001.0, A6000.5:A6000.5, and A6000.5:A6000.25 of. The mixture of agrobacteria was infiltrated into the leaves of N. benthamiana plants using a 1 mL syringe and the induction of an HR in the infiltrated leaf sectors was evaluated at 5 days post-infiltrations. Control infiltrations were made using only the pMOG800:Cf-4 transformed agrobacteria and the agrobacteria containing pICH47742:CfAvr4 or the mutants thereof without mixing the two cultures, at cell densities of A6000.25, A6000.5, and A6001.0.

[2] = test system: subtilisin; assay: Subtilisin treatment (resistance against proteolytic degradation); assay type: in vitro ADME; set-up: key to Stability (Subtilisin assay): S: stable; PU: partially unstable; details: for Stability (Subtilisin assay): 500 ng/μL subtilisin, 30 min, room temperature; for susceptibility to proteolytic degradation by subtilisin: 500 ng/μl subtilisin, band of mature CfAvr4 on SDS-PAGE
Experimental: The WT-CfAvr4 and selected mutants thereof were exposed to the non-specific protease subtilisin in order to determine their resistance against proteolytic degradation. Treatments with subtilisin were made as previously described with minor modifications. Briefly, 40 μM of the E. coli-produced CfAvr4 and the selected CfAvr4 mutants were mixed with 10 mM of calcium chloride and 500 ng/μL of subtilisin (Sigma-Aldrich) in a total volume of 15 μL. Samples were incubated for 30 min at room temperature, after which period they were denatured by mixing with 10 mM PMSF and SDS-PAGE loading buffer, and heating at 98°C for 10 min. Digestion products were visualized on an SDS-PAGE after staining with Coomassie blue.

[3] = test system: Cf-4 immune receptor; assay: Pure protein infiltrations into tomato leaves of cv Purdue 135 (+ Cf-4), hypersensitive response; assay type: in vivo; details: 5 dpi
Source text: Tomato seeds were obtained from the Tomato Genetic Resource Center (TGRC) at UC Davis. WT-CfAvr4 and mutants thereof with single point mutations at selected amino acids were produced and purified from E. coli Rosetta-gami B cells as description above. […]

[4] = Isothermal titration calorimetry (ITC) of CfAvr4 variants with chitin hexasaccharide; assay type: binding; details: ITC; for effect of the mutation on binding to (GlcNAc)6: compared with WT-CfAvr4; for increase in the Kd relative to WT-CfAvr4: (GlcNAc)6
Experimental: A stock solution of the monomer of N-acetylglucosamine was prepared by dissolving the dry powder in a buffer containing 10 mM Bis-Tris, pH 6.5, 100 mM NaCl to a concentration of 0.100 g/L using analytic techniques. Standard solution of 0, 0.010, 0.025, 0.050, 0.075 g/L were prepared by serial dilutions. Using glass test tubes and pipets, 100 μL of each standard was mixed with 300μL of concentrated sulfuric acid and vortexed for 10 sec to mix. Solutions were incubated at RT for 10 min and then placed on ice to stop the reaction. […] Analytically prepared solution of the di- and tri-saccharide scaled linearly to the calibration curve. To determine the concentration of the chitin hexasaccharide solutions used in ITC, the solutions were diluted into the dynamic range of the calibration curve (S12 Fig) and subjected to the above procedure.
All ITC experiments were performed on a TA Instruments low volume NanoITC with a 186uL reaction cell and a reference cell filled with degassed Milli-Q grade water. Reactions were run in a buffer containing 10mM Bis-Tris, pH 6.5, 100 mM NaCl. The reservoir solution was filled with protein solution and continuously stirred while Chitin hexasaccharide solutions titrated in 2.5μL aliquots for 19 injections, with an initial 1μL injection, for a total injection volume of 48.5μL. The carbohydrate solutions were made by dissolving the dry powder in buffer to a concentration of 20mM (confirmed using methods described above) and then diluted to the working concentration using the final buffer exchange flow through to match the buffers as closely as possible. The integrated heats, after correction for the heat of dilution were analyzed using the NanoAnalyze software from […]. An individual binding site model was used to fit the binding isotherm. All experiments were replicated a minimum of three times.

[5] = test system: germlings of Trichoderma viride; assay: In vitro protection assay of T. viride germlings against chitinases; assay type: cell-based; details: 5 μM protein with chitinases and β-1,3-glucanases, 6–8 h
Experimental: The ability of the WT-CfAvr4 and of ChBD mutants to protect against chitinases was evaluated in in vitro protection assays conducted as described before. Briefly, spores of T. viride (3∙10^3) were pre-germinated overnight at room temperature in 100 μl of half-strength PDB medium in 96 well plates. The following day, 5 μM of WT-CfAvr4 or ChBD mutants were mixed with 7.5 units of Zymolyase (Zymo Research cat. no. E1004) and 0.2 units of bacterial chitinases (Sigma-Aldrich cat. no. C6137) and the mixture was added to the microtitre plate wells containing the pre-germinated spores in a final volume of 150 μl. Plates were incubated at 25°C for 6–8 h before evaluating under the microscope fungal growth and the ability of the proteins to provide protection against chitinases. Zymolase has β-1,3 glucanase and β-1,3-glucan laminaripentaohydrolase activity and is added to the mixture in order to remove the surface glucans from the fungal cell wall and thus expose the underlying chitin layer.

Molecule	HR on transient co-expression with Cf-4 [1]	Stability (Subtilisin assay) [2]	susceptibility to proteolytic degradation by subtilisin [2]	Cf-4-mediated HR after protein infiltration ([3]; 5 μg/ml)	Cf-4-mediated HR after protein infiltration ([3]; 10 μg/ml)	Cf-4-mediated HR after protein infiltration ([3]; both 5 μg/ml and 10 μg/ml)	effect of the mutation on binding to (GlcNAc)6 [4]	protection of fungal hyphae against chitinases, fungal growth [5]	increase in the Kd relative to WT-CfAvr4 [4]
B1	strong and similar in intensity HR	PU	vulnerable to proteolytic degradation; also recorded: decreased intensity of this band	weak HR response	elicited an HR	only partially trigger an HR	abolished all detectable binding	essentially failed to protect the fungal hyphae against chitinases; also recorded: fail to protect the fungal hyphae	
B2	strong and similar in intensity HR	PU	more susceptible to degradation; also recorded: almost complete disappearance of the band			failed to elicit an HR; also recorded: do not; also recorded: did not elicit an HR			six
B3	strong and similar in intensity HR					strong and equal in intensity HR; also recorded: strong and equally in intensity necrosis	did not affect the Kd substantially		
B4	strong and similar in intensity HR					strong and equal in intensity HR; also recorded: strong and equally in intensity necrosis	did not affect the Kd substantially		
B5	strong and similar in intensity HR					strong and equal in intensity HR; also recorded: strong and equally in intensity necrosis	did not affect the Kd substantially; also recorded: does not have an effect on the binding thermodynamics		
B6	strong and similar in intensity HR					strong and equal in intensity HR; also recorded: strong and equally in intensity necrosis			three
B7	strong and similar in intensity HR					strong and equal in intensity HR; also recorded: strong and equally in intensity necrosis	did not affect the Kd substantially		
B8	strong and similar in intensity HR	PU	more susceptible to degradation; also recorded: almost complete disappearance of the band			failed to elicit an HR; also recorded: do not; also recorded: did not elicit an HR			five
B9	strong and similar in intensity HR					strong and equal in intensity HR; also recorded: strong and equally in intensity necrosis	did not affect the Kd substantially		
